Data reported in article PMC12915131, “Balanced Expression of the Diiron Oxygenase BioE Is Essential for Biotin Homeostasis in Elizabethkingia meningoseptica” (Advanced Science, 2025).

Experiments:
[1] = target: Elizabethkingia meningoseptica BioE (Elizabethkingia meningoseptica); test: SEC; Superdex 75 (Increase) column, 20 mM Tris-HCl pH 8.0, 300 mM NaCl; oligomeric state judged from retention volume
[2] = target: Chlamydia psittaci BioE (Chlamydia psittaci); test: SPR; […], single-cycle kinetics, 1:1 Langmuir fit; […]

stearoyl-ACP (E. coli acyl carrier protein carrying a C18 acyl group), sequence (P0A6A8 2-78): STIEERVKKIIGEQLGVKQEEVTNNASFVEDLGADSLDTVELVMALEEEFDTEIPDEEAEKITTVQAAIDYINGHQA

stoichiometry N [1] | Substance | Kd [2] [nM]
2 | Elizabethkingia meningoseptica BioE (enzyme) | 
 | stearoyl-ACP (E. coli acyl carrier protein carrying a C18 acyl group) (from UniProt P0A6A8 2-78) (natural protein) | 203
